Measured values as given in doi:10.1101/2025.03.12.642377 (bioRxiv, 2025).

Biological target: PACRG-mNeonGreen-6xHis (C. reinhardtii, UniProt B1B601 1-307)
Test: pull-down

B1: FAP20-mRuby3 (His-tag cleaved) (natural protein, C. reinhardtii, UniProt A8IU92 1-190, looked up)
chain: MFKNAFQSGFLSVLYSIGSKPLEIWDKQVSNGHIKRITDADIQSSVLEIMGQNVSTTYITCPADPNKTLGIKLPFLVLIIKNLNKYFSFEVQVLDDKNVRRRFRASNYQSTTRVKPFICTMPMRLDSGWNQIQFNLSDFTRRAYGTNYIETLRVQVHANCRIRRIYFSDRLYSEEELPAEFKLFLPIQKS
B1: binds.
